The target of the assay is T1, human plasma kallikrein (human, UniProt P03952 20-390; P03952 391-638).
T1 construct: two disulfide-linked chains; NP_000883.2; also called pKal; hpKal
Put plainly: ELISA, biotinylated pKal signal over streptavidin background.

T1 sequence (P03952 20-390 limits assumed, chain 1 of 2): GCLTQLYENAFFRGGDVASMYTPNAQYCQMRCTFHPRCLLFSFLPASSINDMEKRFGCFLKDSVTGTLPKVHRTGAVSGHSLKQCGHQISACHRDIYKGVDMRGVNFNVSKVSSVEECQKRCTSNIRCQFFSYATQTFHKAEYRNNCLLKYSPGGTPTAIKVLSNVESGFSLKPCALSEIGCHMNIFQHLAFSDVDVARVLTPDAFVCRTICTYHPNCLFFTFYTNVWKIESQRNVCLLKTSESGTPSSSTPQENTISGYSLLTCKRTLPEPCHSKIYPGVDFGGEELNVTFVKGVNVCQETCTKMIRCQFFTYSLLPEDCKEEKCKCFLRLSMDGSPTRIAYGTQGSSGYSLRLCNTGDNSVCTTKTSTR
T1 sequence (P03952 391-638 limits assumed, chain 2 of 2): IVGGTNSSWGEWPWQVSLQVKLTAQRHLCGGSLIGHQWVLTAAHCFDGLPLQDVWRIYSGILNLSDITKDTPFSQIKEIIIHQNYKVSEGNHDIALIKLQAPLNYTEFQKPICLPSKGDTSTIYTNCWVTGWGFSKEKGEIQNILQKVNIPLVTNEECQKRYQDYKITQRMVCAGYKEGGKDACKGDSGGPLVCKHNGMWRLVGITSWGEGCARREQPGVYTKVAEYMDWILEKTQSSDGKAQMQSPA

B1: M11-E01 (Fab, V domains shown)
VH: EVQLLESGGGLVQPGGSLRLSCAASGFTFSTYEMYWVRQAPGKGLEWVSGIGSSGGMTMYADSVKGRFTISRDNSKNTLYLQMNSLRAEDTAMYYCAREQPGIAALQFWGQGTLVTVSS
VL: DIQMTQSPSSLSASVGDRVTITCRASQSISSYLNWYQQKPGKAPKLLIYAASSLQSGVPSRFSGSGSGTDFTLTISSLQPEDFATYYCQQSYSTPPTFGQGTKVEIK
For the molecule B1, the “ELISA (T/B)” value was determined as 11.7.

B2: M10-A12 (Fab, V domains shown)
VH: EVQLLESGGGLVQPGGSLRLSCAASGFTFSLYLMHWVRQAPGKGLEWVSSIYSSGGFTTYADSVKGRFTISRDNSKNTLYLQMNSLRAEDTAVYYCARDTDYGMDVWGQGTTVTVSS
VL: DIQMTQSPLSLSAFVGDRVTITCRASRDISVYLNWYQLKSGKAPKLLIYGASSLQSGVPSRFSGSGSGTDFTLTITSLQPEDFATYYCQQSYSIPFTFGGGTKVETK
As for B2, the “ELISA (T/B)” value was 20.8.

B3: M11-E04 (Fab, V domains shown)
VH: EVQLLESGGGLVQPGGSLRLSCAASGFTFSMYHMNWVRQAPGKGLEWVSGIVSSGGVTFYADSVKGRFTISRDNSKNTLYLQMNSLRAEDTAVYYCARITTVTTGGAFDIWGQGTMVTVSS
VL: DIQMTQSPSSLSASVGDRVTITCRASQSISIYLTWYQHRPGKAPNLLIYGAATLQTGVPSRFSGSGSGTDFTLTIRGLQPEDFATYYCQQTFSLPRTFGQGTKLEIK
On to B3, for which the “ELISA (T/B)” value turned out to be 43.2.

B4: M9-H04 (Fab, V domains shown)
VH: EVQLLESGGGLVQPGGSLRLSCAASGFTFSAYTMWWVRQAPGKGLEWVSSIWPSGGSTFYADSVKGRFTISRDNSKNTLYLQMNSLRAEDTAVYYCARTYDSSAGEVDYWGQGTLVTVSS
VL: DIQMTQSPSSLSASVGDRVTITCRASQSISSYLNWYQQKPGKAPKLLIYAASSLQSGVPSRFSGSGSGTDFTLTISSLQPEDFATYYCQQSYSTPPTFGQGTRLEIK
With B4, the “ELISA (T/B)” value turned out to be 16.1.

B5: M10-B09 (Fab, V domains shown)
VH: EVQLLESGGGLVQPGGSLRLSCAASGFTFSWYEMSWVRQAPGKGLEWVSRIWPSGGVTMYADSVKGRFTISRDNSKNTLYLQMNSLRAEDTAVYYCTRTSITTVGMDVWGQGTTVTVSS
VL: DIQMTQSPSSLSASVGDGVTITCRASQSISTYLNWYQQRPGKAPKLLIYGASSLQSGVPSRFSGSGSGTDFTLTISSLQREDFATYYCQQSFSTPWTFGQGTRVEIK
Turning to B5, the “ELISA (T/B)” value was 14.1.

B6: M11-E06 (Fab, V domains shown)
VH: EVQLLESGGGLVQPGGSLRLSCAASGFTFSQYAMHWVRQAPGKGLEWVSSIYPSGGFTLYADSVKGRFTISRDNSKNTLYLQMNSLRAEDTAMYYCARGGWLAGGELLNWGQGTLVTVSS
VL: DIQMTQSPSSLSASIGDRVTISCRASRGIGTYLNWYQQHAGKAPKLLIRAASSLETGVPPRFSGSGSGTDFTLTISSLQSDDFATYYCQESFTNVYNFGQGTKLEIK
For the molecule B6, the “ELISA (T/B)” value is 12.6.

B7: M10-F09 (Fab, V domains shown)
VH: EVQLLESGGGLVQPGGSLRLSCAASGFTFSNYDMMWVRQAPGKGLEWVSYISPSGGFTRYADSVKGRFTISRDNSKNTLYLQMNSLRAEDTATYYCAKDIYYYNWGPSHYFDSWGQGTLVTVSS
VL: DIQMTQSPSSLSASVGDRVTITCRASQTIDDDLIWYQQKPGRAPKLLIYAASSLQSGVPSRFSGSGSGTDFTLTITSLQPEDFATYYCQQSYNIPRTFGQGTKLESK
B7: the “ELISA (T/B)” value was 4.8.

B8: M10-C11 (Fab, V domains shown)
VH: EVQLLESGGGLVQPGGSLRLSCAASGFTFSMYPMMWVRQAPGKGLEWVSYISPSGGMTDYADSVKGRFTISRDNSKNTLYLQMNSLRAEDMAVYYCARVAGSSDAFDIWGQGTMVTVSS
VL: DIQMTQSPSSLSASVGDRVTITCRASQSISIYLNWYQQKPEKAPKLLIFAASTLQSGVPSRFSGSGSGTDFTLTISNLQPEDFATYYCQQSHSIPPTFGLGTKVEVK
Regarding B8, the “ELISA (T/B)” value amounted to 5.3.

B9: M10-A03 (Fab, V domains shown)
VH: EVQLLESGGGLVQPGGSLRLSCAASGFTFSPYPMQWVRQAPGKGLEWVSSISSSGGMTEYADSVKGRFTISRDNSKNTLYLQMNSLRAEDTAVYYCARDDYGGKGGAFDIWGQGTMVTVSS
VL: DIQMTQSPSSLSASVGDRVTITCRASQRISFYLNWFQQKPGKAPNLLIYGASSLQSGVPSRFSGSGSGTDFTLTISSLQPKDFGTYYCQQTFSTPNTFGQGTKLEIK
On to B9, for which the “ELISA (T/B)” value was 33.7.

B10: M11-E05 (Fab, V domains shown)
VH: EVQLLESGGGLVQPGGSLRLSCAASGFTFSWYTMGWVRQAPGKGLEWVSWIYFGGLTTYADSVKGRFTISRDNSKNTLYLQMNSLRAEDTAVYYCARLGGPLDAFDIWGQGTMVTVSS
VL: DIQMTQSPSSLSASVGDTVTITCRTSQTINNYLNWYQQRPGEAPKVLIYATHTLESGVPSRFSGSGSGTDFTLTIGSLQPEDFATYYCQQSFAFPYTFGQGTKVEIT
Regarding B10, the “ELISA (T/B)” value was found to be 41.4.

B11: M11-A10 (Fab, V domains shown)
VH: EVQLLESGGGLVQPGGSLRLSCAASGFTFSNYWMMWVRQAPGKGLEWVSGIGSSGGFTSYADSVKGRFTISRDNSKNTLYLQMNSLRAEDTAVYYCAKGSYSDYGVFESWGQGTLVTVSS
VL: DIQMTQSPSSLSASVGDRVAITCRASQSIDTYLNWYQQKPGKAPKLLIYDASNLEIGVPSRFSGSGSGTDFTFIINSLQPEDVATYYCQHYLYAPYSFGQGTKLEIK
With B11, the “ELISA (T/B)” value turned out to be 25.

B12: M10-G09 (Fab, V domains shown)
VH: EVQLLESGGGLVQPGGSLRLSCAASGFTFSQYGMQWVRQAPGKGLEWVSSIRSSGGATRYADSVKGRFTISRDNSKNTLYLQMNSLRAEDTAVYYCARDGYYDSSGYPDYWGQGTLVTVSS
VL: DIQMTQSPSSLSASVGDSVTITCRASQSISGYINWYQQKAGKAPKLLIYAASSLQSGVPSRFSGSGSGTHFTLTISSLQPEDFATYYCQQYVSYPFTFGPGTKVDIK
In the case of B12, the “ELISA (T/B)” value came to 7.1.

B13: M9-H03 (Fab, V domains shown)
VH: EVQLLESGGGLVQPGGSLRLSCAASGFTFSWYSMGWVRQAPGKGLEWVSYIVPSGGYTMYADSVKGRFTISRDNSKNTLYLQMNSLRAEDTAVYYCARDPGVSYYYYGMDVWGQGTTVTVSS
VL: QYELTQAPSVSVAPGQTASITCSGDKLGNRYTSWYQQKPGQSPVLVIFQDNKRPSGIPERFSGSNSGNTATLTISGTQAMDEADYYCQALDSNTYVFGTGTKVTVL
As to B13, the “ELISA (T/B)” value was found to be 4.4.

B14: M10-D11 (Fab, V domains shown)
VH: EVQLLESGGGLVQPGGSLRLSCAASGFTFSAYPMNWVRQAPGKGLEWVSRISSSGGNTSYADSVKGRFTISRDNSKNTLYLQMNSLRAEDTAVYYCALGYLGYWGQGTLVTVSS
VL: not shown
With B14, the “ELISA (T/B)” value was determined as 6.4.

B15: M10-E06 (Fab, V domains shown)
VH: EVQLLESGGGLVQPGGSLRLSCAASGFTFSLYRMFWVRQAPGKGLEWVSSIWSSGGPTMYADSVKGRFTISRDNSKNTLYLQMNSLRAEDTAVYYCAREYPSTYYFDYWGQGTLVTVSS
VL: DIQMTQSPSSLSASVGDRVTITCRASQSISTYLNWYQQKPGKAPKLLIYGASSLQSGVPSRFSGSGSGTDFTLTISSLQPEDFTIYYCQQSYSDPYTFGQGTKLDIK
Turning to B15, the “ELISA (T/B)” value was 32.8.

B16: M9-H02 (Fab, V domains shown)
VH: EVQLLESGGGLVQPGGSLRLSCAASGFTFSAYMMIWVRQAPGKGLEWVSVIYPSGGVTMYADSVKGRFTISRDNSKNTLYLQMNSLRAEDTAVYYCARGTVGASDAFDIWGQGTMVTVSS
VL: DIQMTQSPSSLSASVGDRVIITCRASRSIATYLNWYQQKPGKAPNLLIFGASTLQSGVPSRFSGSGSGTDFTLTISDLQPEDFATYYCQQSFSDPYTFGQGTNLEMK
Turning to B16, the “ELISA (T/B)” value was 3.5.

These data come from patent US20260176378A1 (DYAX, published 2026).
